Measurements published in PMC4958273, “Expression and preliminary characterization of human MICU2” (Biology Open, 2016).

Target: the molecule itself
Assay: SEC-MALS; Ca2+-bound condition (5 mM CaCl2); protein at 0.5-2.5 mg/ml, 200 µl injected, KW-G and KW-803 columns, 0.5 ml/min; monomer to dimer

B1: MICU2-NΔ84-CΔ28 (domain or fragment, human, UniProt Q8IYU8 84-406, looked up)
chain: SLRKQRFMQFSSLEHEGEYYMTPRDFLFSVMFEQMERKTSVKKLTKKDIEDTLSGIQTAGCGSTFFRDLGDKGLISYTEYLFLLTILTKPHSGFHVAFKMLDTDGNEMIEKREFFKLQKIISKQDDLMTVKTNETGYQEAIVKEPEINTTLQMRFFGKRGQRKLHYKEFRRFMENLQTEIQEMEFLQFSKGLSFMRKEDFAEWLLFFTNTENKDIYWKNVREKLSAGESISLDEFKSFCHFTTHLEDFAIAMQMFSLAHRPVRLAEFKRAVKVATGQELSNNILDTVFKIFDLDGDECLSHEEFLGVLKNRMHRGLWVPQHQS
notes: human MICU2 (BC031089.1), N-terminal deletion starting at amino acid 84, the C-terminal 28 amino acids deleted; lacks Cys413; Predicted molecular weight ~40 kDa; source: E. coli BL21 (DE3); purified (Ni-NTA, SEC) for MALLS; in lysate (cells mixed and sonicated together) for the pull-down; not shown: His-tag, N-terminal, kept
  stoichiometry N: 2
